Seven molecules from EP4814013A1 (Nanjing Regenecore Biotech Co., Ltd., dated 2026) can be followed below.

The target of experiment [1] is T1, human recombinant CD16a extracellular domain protein, amino acids 17-208 with F at position 176 (CD16a-F176) (human, UniProt P08637 17-208).
T1 construct: range 17-208; Made in-house in 293F cells; also called human CD16a (F176)
Briefly: ELISA of crude VHH extracts of panned phage-library clones on coated antigen, anti-HA-HRP; positive = OD more than 5 times the control. (An ELISA detects its analyte on a solid surface through an enzyme-linked reagent.)

The target in experiment [2] is T2, human recombinant Nkp46 extracellular domain protein, amino acids 22-254 (human, UniProt O76036 22-254).
T2 construct: range 22-254; Made in-house in 293F cells
T2 sequence (O76036 22-254 limits assumed): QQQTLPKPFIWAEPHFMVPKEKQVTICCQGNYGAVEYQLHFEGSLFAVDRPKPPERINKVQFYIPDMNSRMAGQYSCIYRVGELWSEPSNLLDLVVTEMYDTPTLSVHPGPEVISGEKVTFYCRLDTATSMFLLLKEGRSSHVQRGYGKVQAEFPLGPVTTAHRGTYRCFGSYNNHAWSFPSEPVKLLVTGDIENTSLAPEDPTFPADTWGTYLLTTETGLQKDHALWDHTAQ
Briefly: phage display panning and clone ELISA as in Examples 1-4.

Experiment [3] deals with T3, human recombinant CD16a extracellular domain protein, amino acids 17-208 with V at position 176 (CD16a-V176) (human, UniProt P08637 17-208).
T3 construct: range 17-208; Made in-house in 293F cells; also called human CD16a (V176)
T3 sequence (P08637 17-208 F176V limits assumed): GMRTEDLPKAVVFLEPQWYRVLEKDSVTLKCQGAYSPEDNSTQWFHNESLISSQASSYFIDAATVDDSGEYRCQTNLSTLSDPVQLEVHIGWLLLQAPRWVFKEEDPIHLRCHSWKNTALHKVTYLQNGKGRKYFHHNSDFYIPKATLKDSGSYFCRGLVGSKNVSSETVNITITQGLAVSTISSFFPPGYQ
Kind of experiment: ELISA of crude VHH extracts of panned phage-library clones on coated antigen, anti-HA-HRP; positive = OD more than 5 times the control.

Experiment [4] has as its target T4, human recombinant FOLR1 extracellular domain protein, amino acids 25-233 (human, UniProt P15328 25-233).
T4 construct: range 25-233; Made in-house in 293F cells
Briefly: phage display panning and clone ELISA as in Examples 1-4.

T1 sequence (P08637 17-208 limits assumed): as the sequence (P08637 17-208 F176V limits assumed) above, with V160F counted along it
T4 sequence (P15328 25-233 limits assumed): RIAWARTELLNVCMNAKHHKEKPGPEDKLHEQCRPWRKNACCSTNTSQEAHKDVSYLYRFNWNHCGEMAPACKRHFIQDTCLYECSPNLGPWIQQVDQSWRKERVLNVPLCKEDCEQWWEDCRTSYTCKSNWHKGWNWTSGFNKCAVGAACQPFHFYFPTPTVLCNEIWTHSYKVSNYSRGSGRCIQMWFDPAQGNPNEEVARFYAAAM

B1: anti-CD16a single-domain antibody clone 4B5 (VHH, crude extract from pMECS) (VHH)
VHH: QVQLVESGGGLVQAGGSLRLSCAASGGTFRIYAMGWFRQAPGKEREFVGSISMMRGITDYAESVKGRFTISRDNAKFTMYLQMNSLKSEDTAVYYCAKAVDKSPYGGWGWGPYDDWGQGTQVTVSS
notes: Crude antibody extract of an E. coli TG1 clone; not shown: C-terminal tag(s) from the pMECS vector (HA tag detected with anti-HA-HRP, tag for nickel-column purification)
Take B1: the binding result in experiment [1] was “binds”.

B2: Nkp46-7F10 single-domain antibody (VHH)
VHH: QVQLVESGGGLVQAGGSLRLSCAASGRTFSSYAMGWFRQAPGKEREFVAGISWSGDSTYYADSVKGRFTISRDNAKNTVGLQMNSLKPEDTAVYYCAAASGQVQTVVVVTDRWYHYWGQGTQVTVSS
notes: Parental (not humanized) clone as screened
On to B2, for which the binding result in experiment [2] was “binds”.

B3: anti-CD16a single-domain antibody clone 15E2 (VHH, crude extract from pMECS) (VHH)
VHH: QVQLVESGGGLVQAGDSLRLSCAASGGTFRIYAMGWFRQAPGKEREFVGSISMMRGITDYAESVKGRFTISRDNAKFTMYLQMNTLKPEDTAVYYCAIRERPPPMGWGLAGISYDYWGQGTQVTVSS
notes: as for B1
On to B3, for which the binding result in experiment [1] is “binds”.

B4: anti-CD16a single-domain antibody clone 14A3 (VHH, crude extract from pMECS) (VHH)
VHH: QVQLVESGGGLVQPGGSLRLSCEVSGRTFSYLALGWFRQAPGKEREFVAAASWGGGSTGYADSVKGRFAISRDNVKNTQYLQMNSLKPEDTAVYYCVVGRRFKGSVYYTPNEYEYWGQGTQVTVSS
notes: as for B1
Consider B4, for which, in experiment [3], the binding result is “binds”.

B5: anti-CD16a single-domain antibody clone 23D1 (VHH, crude extract from pMECS) (VHH)
VHH: QVQLVESGGGLVQAGGSLRLSCAVSGRTFSYLAMGWFRQAPGKEREFVAASSWGGGTSGYADSVKGRFAISRDNAKNTQYLQMNSLKPEDTAVYYCVVGRRFKGSVYYTPNEYEYWGQGTQVTVSS
notes: as for B1
On to B5, for which the binding result in experiment [3] is “binds”.

B6: FOLR1-4F4 single-domain antibody (VHH)
VHH: QVQLVESGGGSVQAGGSLRLSCAASDGTYRRYCMGWFRQAPGKEREKVAAIYTGDGTTYYADSVKGRFTISQENAKNTMYLQMNSLKPEDTAMYYCAADRSGCSVAWSYSSFEDWGQGTQVTVSS
notes: as for B2
As for B6, the binding result in experiment [4] is on record as “binds”.

B7: anti-CD16a single-domain antibody clone 13G6 (VHH, crude extract from pMECS) (VHH)
VHH: QVQLVESGGGLVQPGGSLRLSCAASGRTFRIYAMGWFRQAPGKEREFVGSIRLMRGITDYADSVKGRFTISRDNAKFTMYLQMNTLKPEDTAVYYCAAVGSGGDFYTPSTSGEYRYWGQGTQVTVSS
notes: as for B1
As for B7, in experiment [3], the binding result is recorded as “binds”.
